In the DeepSol protein solubility set:

Assay: soluble on expression in E. coli; label from the status in PepcDB or PDB records

Sequence	soluble on expression in E. coli
MKNAFFVTASIACGKSTFIEIANSLGFKSISADKIAHKILDENALELEKIFSPFSLKNLLKKEKKIDRKILGEIVFNNKEAKKILENFTHPKIRAKILEQMQILDKENKAFFVEIPLFFESGAYENLGKVIVIYTPKELSLKRIMQRDKLSLEAAKARLDSQIDIEEKLKKADFIIKNTNSYADFRQECVKVIQEISKGNM	not soluble
MAAAALREQLNALLSSMFASGLVDEQFQQLQMLQEDGGTPGFVAEVVTLFCDDADRIISELAALLDQPIVDFDKVDAYVHQLKGSSASVGAQKVKFTCMQFRQLCQDKNRDGCIMALAVVRNEFYDLRNKFQTMLQLEQQIQAQQ	soluble
MTNNAVLQLRAERLARATRPFLARGNRVRRCQRCLLPLKSCLCDTLTPSQAKSRFCLVMFDTEPMKPSNTGRLIADILPDTAAFQWSRTEPPQALLELVQHPDYQPIVVFPASYAGEAREVISTPPAGKPPLFIMLDGTWPEARKMFRKSPYLDHLPVISVDLSRLSAYRLREIHAEGQYCTAEVAIALLDLAGDTEAATSLGEHFTRFKTRYLAGKTQHPGNVTALEHHHHHH	soluble
MGSDKIHHHHHHMKLDINICNNIKSIRTRLGMSQQDLANIAGVTRQTISGVESGQYAPSVAITLRLAKALGCQVENLFWLEDDLPEIEAVLAKPVPTGQQLRVSLAKVGGQWIAYPLVGKEAFRMEMIPADGRAESQTHTNKVQVRLLDDLDKLQNTVVIAGCTPVISFLARATERWHPQLRVHYHFANSMAALRSLNRGEVHIAGMHLYDPQTGEHNIPFAREALDGRSAVLITLGIWEEGLVVAPGNPMEIKSLSDLVELEATIINREPGSGSRMLLERKLKEEKVSANTIKGYEHIVHSHQDVALSIAAGIADAGVSTASVAAAFGLGFIPLHQARYDLVILKEYLEEAPVQQFLSILGHRLVQSQLEVLGGYDISDIGEVVATI	not soluble
MGDELHVIVARSVNVTHKEPPVVPDEQRREMVGALKPVDEAHLGHSEDIFIPIERIEPDIIALGYDQHHDDEQLEAALSARGIDCDICRASPLETEAADRVLSTGRIIDRILDERS	not soluble
EVVVVGYGTQKKVNLTGAVSAVSAEDLASKPVMSTAQALAGLAPGLSVLQTSGRPGQGATVKIRGTGTFSKAGTDPLVLIDGLSGNIDDVDPNDIQSISFLKDAASASIYGNRAANGVILIETKKGA	not soluble
HHHHHHMDLVEKVKELCLELEEENLAKAIERFITLTHGIEKTRGEAFAKASIYGFLEGILTTLKMKYSNEKIETLLNEVKTAREETEALLRKPRPPLLVDNDL	soluble
MGSDKIHHHHHHTGIWQWSVPVHNFSTHPKNPESRAYLWIPGQCEQVKAILVAQHNMEEISILEDEAFRQRMAELDVAQIWVCPSFNHGFDFTDGAWETLDGLLADLAEESGYKELSTAPLIAIGHSAAASWPYYLAAYKPERTLACISVSGQWPYHRDRWLCPDIWGERNINKIPCLETMGEYESAHTWSNEGLKERKEHPLLPLSMLACPAEGHFAYTPEKAQYIALYIKKAMHYGHVDPTKEGWLMERWKKNEKPSCIPAPVNQFKGDPAQAFWFFDREMIEATLAYQSRYYDMKPQLVSVSQNGKTVSQQNTHLQVHPAFIPQEDGITFQLTPVFLDTVPGESPRLSNWTDLPVGASIGHAGKAPVLQMITGPVVLVDSVTFRIQWNRGTLWTDKKSDIVFSITHPGDEEYKPAVQQAQMIIPVKNTEGQQQYIKFATLPDIKRGTKYVSLSAVSSCGLPVDFYVESGPAYVDGNRLILTAIPPKTTYPVKVTVIAWQYGKNSDPKIKTAEPVKQTFYIR	not soluble
MAHHHHHHMFLAATLDGVRSILSRIDPRQLHLYEIIREGSPCHLYLDVERESNHTALQHVIAVDDDSTSSSVEEADSLVQVEEDVGGTRRIVFQCCQSRYQELRRLAVRDPTDVCGLDCRIEPDNRNTCDVLLSALNSFVRDRHPSWVPPGLQAEGPGSVFADAWVLESVPLSGAATKFSQHYILKLHGRMFESTNSVKAFVRDFVAHVRERAAHDSQLHGALFFHKPPAWYPVFRELPLDYPRTTFPYLPRRCVIDEAVYSKNRMMRCVGSCKLGKQSVLLPYRHYVAGSCVEYFSNSANAASVSLDVFLSTLIAHRFAKDVAPVSLIKLTEEIEAPKNTRACALPASVSEGTAPATLHTVSLDVDIALLTSSLQRAYSQVANRACTVAQPHSLHGRFLSFSVRGTRYCQHIGREHKSNNVYLVVDTERMTFVQKCFDPDCASYRSPPRLLGGTP	not soluble
MPEFVQYVGGHFEEVGKEFMQYFIEIGNLKSNETVLDVGCGIGRMAVPLMNYLSDDGTYYGFDLFNKGITWCKNNISTRRNNFHFEHVDIYNQFYNPDGKEDASQYKFPYEDESFDFIFLTSVFTHLLPKELEHYVREIARVLKKDGRCFITFFLINPESSYYLNAGLSPLGFYHQIDNCYVLNKDIPNFAVAYPEEDIRTLLNKYGLEMQTPPHYGSWCGRTEHTSYQDIILAQKLEHHHHHH	soluble
MSAAHKNLLAVWAKEPKDLVAVEKALNELTKVLSASSDLNDKQSALASKDLYEISVLLAILKHDFETFDDYINQMHTYYTMAPENSENKHLMTGLHLMFLLAANRLSDFHMLLEQIPQKEQTSNAYISTPVRIEQSLMEGAYNKVVLTEKNIPSPFYTIFIRIMLDTIRREIATSIEKSFKVLTAKDATVMLLFDNDEQMKKFGQERKWHLDGERYVFEIEVAQEKPVNLDTVRVATQTLFYAKQLEQIV	not soluble
AMATAPRPLREQYLHFQPISTRWHDNDIYGHVNNVTYYAFFDTAVNTYLIERGGLDIQGGEVIGLVVSSSCDYFAPVAFPQRIEMGLRVARLGNSSVQYELALFLEGQREACAAGRFVHVFVERRSSRPVAIPQELRDALAALQSSAQ	soluble
MAHHHHHHMAARTDDPRLLSLFSAQREEDADIVIIGFPYDEGCVRNGGRAGAKKGPAAFRFFLQRLGSVNNLELNVDASHLKLYDAGDITASTLEEAHEKLESKVFTVLARGAFPFVIGGGNDQSAPNGRAMLRAFPGDVGVINVDSHLDVRPPLQDGRVHSGTPFRQLLEESSFSGKRFVEFACQGSQCGALHAQYVRDHQGHLMWLSEVRKKGAVAALEDAFGLTGKNTFFSFDVDSLKSSDMPGVSCPAAVGLSAQEAFDMCFLAGKTPTVMMMDMSELNPLVEEYRSPRVAVYMFYHFVLGFATRPKPKAEN	soluble
MSLGNSAGFGSVGDNSSGGSGANRDANNRPSWFQETARRTIPNTVLRREVKSSSNSGEDDNGNRGDSTSTGFNTLTFGAKKHMLLGSSNVSTGGNDHMNPLLMDNSEAPPTVSISDWKREEGLFDLRNTRNENTINTIGTPTFISPISREKSEVSLFDSNSQSRSSSASSIGSESETGNAVVVFGYREAITKQILAYFAQFGEILEDLESELGDTETMRTPGYFFQQAPNRRRISREHGRTWTKLTYANHSSYLRALREHGTIYCGAAIGCVPYKHELISELSRDTYNSMNDVKQTNSISTNQLTQHNQSEVPKSNQTFETKPTNETERNQIKTPSAFGSDNKGNGSISSGRTKRRLSIKDGSSLFLSGTEGHHHHHH	soluble
MGSDKIHHHHHHMKNNFLVNFILLHGYSLDNSSLMFGKMGYSLILFEYSHYFKDALAEKHAFELLQEVLASPMKSNTFNEGKMGIAWSLIHLIEKEYIEADYLELYGQEHKEIVAFIKQLKTDMNNIVSKNDAISFLIASKSYIQESDFDEILPNLIENLYDYLKQIPKSLFERNLFYYHATKMLCLYNLYEELSIRGETLIDIIVQTHKKLISDKHVCTNISFGVNLLQYGLCHKRKDIIKLANAIIKCYFSNMVLETLNLKESIDAIYNLNKLQLLNKESEWTSLKKQLSSLLFNKESYLYKENRLTLSRLKGGIPQLLLMECLNFQDIKSTGHYIMLK	not soluble
MFVRVMKIAQNKKIVTVYPTTTIRKALMTMNENKYRRLPVVNAGNNKVVGIITSMDIVDFMGGGSKYNLIREKHERNFLAAINEPVREIMEENVITLKENADIDEAIETFLTKNVGGAPIVNDENQLISLITERDVIRALLDKIDENEVIDDYITRDVIVATPGERLKDVARTMVRNGFRRLPVVSEGRLVGIITSTDFIKLLGSDWAFNHMQTGNVREITNVRMEEIMKRDVITAKEGDKLKKIAEIMVTNDIGALPVVDENLRIKGIITEKDVLKYFA	soluble
MGSDKIHHHHHHMTQDLAQFAAERGIKYFMISYTDLFGAQRAKLVPAQAIADMQKDGAGFAGFATWLDLTPAHPDLFAVPDASSVIQLPWKKDVAWVAADCVMDDKPVEQAPRVMLKKLVDEAASMGLRVKTGVEPEFFLISADGKTISDEFDTAEKPCYDQQALMRRYDVIAEICDHMLELGWKPYQNDHEDANGQFEMNWEYDDALKTADKHSFFKFMVKSVAEKHGLRATFMPKPFKGLTGNGCHAHISVWDNDGKVNAFADKAMPFGLSAKGKTFLGGIMKHASALAAVTNPTVNSYKRINAPRTVSGATWAPNTVTWTGNNRTHMVRVPGPGRFELRLPDGAVNPYLLQAIIIAAGLSGLKTNADPGPHYDIDMYREGHTVTDAPKLPLNLLDALRAYEADTELQQALGEEFSAAYLKLKHGEWTSYCSQFTPWEHQTTLDI	not soluble
